Measurements as given in article PMC4658703 (2012).

Molecular target: IGF2 (Homo sapiens, UniProt P01344)
Sequence (P01344 25-91): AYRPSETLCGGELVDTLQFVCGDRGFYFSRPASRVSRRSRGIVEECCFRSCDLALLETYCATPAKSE

- Kd: 15 nM
B1: IGF2R domain 11 (protein)
chain: MKSNEHDDCQVTNPSTGHLFDLSSLSGRAGFTAAYSKSGVVYMSICGENENCPPGVGACFGQTRISVGKANKRLRYVDQVLQLVYKDGSPCPSKSGLSYKSVISFVCRPEARPTNRPMLISLDKQTCTLFFSWHTPLACEQAT
